The nature of data set [1]: Fluorescent properties of mutants of Aequorea green fluorescent protein (Table I). The data set is classed as physicochemical.
The target in data set [2] is T1, protein kinase A catalytic subunit (Mus musculus, UniProt P05132). Briefly: Relative rate of phosphorylation by protein kinase A, ^32P incorporation. It is filed as biochemical. Conditions: relative to endogenous PKA motif HKFSV; sites inserted at the N-terminus of S65T GFP. The procedure: (§1) Numbers prior to the sequence indicate amino acid position in wild type GFP (SEQ ID NO:2) where phosphorylation motif starts. The relative rates of phosphorylation compare the rate of phosphorylation of the given phosphorylation motif with the endogenous protein kinase A phosphorylation motif in Aequorea GFP (HKFSV, SEQ ID NO:1) measured by incorporation of ^32P after incubation of the purified substrate and protein kinase A catalytic subunit in the presence of ^32P-labeled ATP using 3 micrograms of GFP, 5 micrograms protein kinase A catalytic subunit, for 10 minutes at 30° C. in standard phosphorylation buffer (20 mM MOPS, pH 6.5, 100 mM KCl, 100 micromolar ATP, 3 mM MgC2, 1 mM DTT and 100 microCi ^32P-labeled ATP. Reactions were terminated by blotting onto phosphocellulose paper and washing with 10% phosphoric acid. The percent change in fluorescence represents the increase in fluorescence (475 nm excitation, 510 nm emission) observed in each purified protein resulting from incubation with excess protein kinase A catalytic subunit for one hour at 30° C. using the same phosphorylation conditions as described above except that no ^32P labeled ATP was present and that after the reaction time was complete, samples were analyzed in a fluoromiter rather than blotted onto phosphocellulose paper.
(§2) Numbers prior to the sequence indicate amino acid position in the wild type GFP where the phosphorylation motif starts. The relative rates of phosphorylation compare the rate of phosphorylation of the given phosphorylation motif with the endogenous protein kinase A phosphorylation motif in Aequorea GFP (HKFSV) measured by incorporation of ^32P after incubation of the purified substrate and protein kinase A catalytic subunit in the presence of ^32P-labeled ATP using the standard protocols described above. The percentage change in fluorescence represents the change in fluorescence (488 nm excitation, 511 nm emission) observed in each purified protein as a result of incubation with excess protein kinase A catalytic subunit for one hour at 30° C. using phosphorylation conditions described above. […] To improve the effect of phosphorylation on fluorescence, amino acids around the phosphorylation site were mutated to create an optimal phosphorylation sequence even if it disordered the existing local tertiary structure. Such disruption was predicted and found to decrease the basal fluorescence of these constructs in their non-phosphorylated state (Table VI).

Data set [3] concerns the target T1, protein kinase A catalytic subunit. Briefly: Change in fluorescence after incubation with excess protein kinase A. It is filed as biochemical. The following applies: one hour at 30° C., 488 nm excitation, 511 nm emission; for % Change in fluorescence: excess protein kinase A catalytic subunit; for % Change in fluorescence upon phosphorylation: more drastically altered N-terminal sites, excess PKA catalytic subunit. The protocol: as §1, §2
Numbers prior to the sequence indicate amino acid position in wild type GFP where the phosphorylation site starts. Negative numbers indicate extensions onto the wild-type N-terminus. The percent change in fluorescence represents the change in fluorescence (488 nm excitation, 511 nm emission) observed in each purified protein resulting from incubation with excess protein kinase A catalytic subunit for one hour at 30° C. using standard phosphorylation conditions described earlier.

Data set [4] concerns activated recombinant MAP kinase. Briefly: Phosphorylation of GFP Erk sensors by MAP kinase, ^32P incorporation. The following applies: for ^32P-Incorporation (CPM): 10 μM substrate, 100 ng MAP kinase, 30 minutes at 30° C., mean ± standard deviation of triplicates. It is filed as biochemical. An excerpt: Experiments were terminated and samples processed as described previously in subsection D.4. Results presented in Table X represent means of triplicate determinations ±standard deviations of ^32P-incorporation in washed pellets as described earlier.

The target in a further data set is Erk-1 kinase (Homo sapiens, UniProt P27361). The experiment in a line: Fluorescence change of Erk substrates after phosphorylation and acetate quench. The data set is classed as biochemical. The following applies: 2 μM GFP, 1 μg Erk-1 kinase, 1 hour at 30° C.; 3 hours in acetate quenching buffer pH 5.0. The protocol: These experiments were performed by incubating the GFP sample (2 μM) with Erk-1 kinase (1 μg) for 1 hour at 30° C. in assay buffer (20 mM MOPS, pH 7.2, 25 mM beta-glycerol phosphate, 5 mM EGTA, 1 mM DTT, 1 mM ATP, 20 mM MgCl2). Reactions were quenched by the addition of acetate quenching buffer (100 μL of 100 mM Acetate pH 5.0, 100 mM NaCl, 20 mM beta-Glycerol phosphate). Fluorescence changes were measured after 3 hours of incubation in acetate quenching buffer. Results represent the means of triplicate determinations.

Consider 16 compounds from patent US20080166749A1, “Fluorescent Protein Sensors of Post-Translational Modifications” (INVITROGEN CORPORATION, priority 1998, published 2008).

Where no end group is shown, it is not given here.

In general, Km refers to the concentration of substrate that gives half-maximal velocity.

Sequence of Erk-1 kinase (P27361 whole entry): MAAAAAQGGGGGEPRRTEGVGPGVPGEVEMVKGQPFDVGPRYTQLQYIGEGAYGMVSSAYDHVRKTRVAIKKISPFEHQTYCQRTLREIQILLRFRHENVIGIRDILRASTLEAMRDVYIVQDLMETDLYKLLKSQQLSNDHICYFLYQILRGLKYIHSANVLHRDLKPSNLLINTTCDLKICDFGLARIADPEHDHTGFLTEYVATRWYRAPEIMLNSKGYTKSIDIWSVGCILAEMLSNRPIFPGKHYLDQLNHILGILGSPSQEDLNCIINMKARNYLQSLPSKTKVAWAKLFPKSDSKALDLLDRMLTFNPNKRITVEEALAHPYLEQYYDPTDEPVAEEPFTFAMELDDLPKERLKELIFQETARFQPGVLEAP

Consider “Wild type: wild-type Aequorea green fluorescent protein, SEQ ID NO:2”, for which, in data set [1], the “Emission Max” value was 508 nm, the “Excitation Max” value amounted to 395 nm, the “Extinction Coefficient” value is 21,000 M − 1 cm − 1 and the “Quantum Yield” value was 0.77. Turning to “1MRDSCLF: S65T GFP with N-terminal phosphorylation site MRDSCLF (not fully specified (C-terminus); printed as 1MRDSCLF)”, the “Relative rates of phosphorylation” value in data set [2] stood at 3.7. The “% Change in fluorescence” value in data set [3] is 17%. For the compound “1IMRRRRSI1: S65T GFP with N-terminal phosphorylation site MRRRRSII (not fully specified (C-terminus); printed as 1IMRRRRSI1)”, the “% Change in fluorescence upon phosphorylation” value was 70% in data set [3] and “about 70%” in data set [3] (listed as 1MRRRRSII). In the case of “1MSRRDSCF: S65T GFP with N-terminal phosphorylation site MSRRDSCF (not fully specified (C-terminus); printed as 1MSRRDSCF)”, the “Relative rates of phosphorylation” value in data set [2] is on record as 2.1. For the same compound, the “% Change in fluorescence” value in data set [3] is listed as 25%. Take “Erk-4: GFP mutant K8 with Erk kinase motif Met Thr Gly Pro Leu Ser Pro Gly Phe (MTGPLSPGF; not fully specified; printed as Met Thr Gly Pro Leu Ser Pro Gly Phe)”: in data set [4], the “^32P-Incorporation (CPM)” value is on record as 1982 ± 260 CPM. As to `O=C(Nc1ccccc1-c1ccc(Cl)cc1)c1cccnc1Cl` [Emerald], in data set [1], the “Emission Max” value was 508 nm and the “Excitation Max” value amounted to 487 nm. Consider “Erk-7: GFP mutant K8 with Erk kinase motif Met Thr Gly Pro Leu Ser Pro Gly Pro (MTGPLSPGP; not fully specified; printed as Met Thr Gly Pro Leu Ser Pro Gly Pro)”, for which the “^32P-Incorporation (CPM)” value in data set [4] is 25502 ± 2077 CPM. In addition, in data set [4] (kinetic analysis), the Km worked out at 15 µM. Moreover, the “Fold Increase in Fluorescence after Phosphorylation” value with Erk-1 kinase came out at 1.05 fold.

In the case of “−1MRRRRSIII: S65T GFP with N-terminal phosphorylation site MRRRRSIII, N-terminus extended by one (not fully specified (C-terminus); printed as −1MRRRRSIII)”, the “% Change in fluorescence upon phosphorylation” value was 43% in data set [3] and “about 70%” in data set [3] (listed as MRRRRSIII). Turning to “−2MRRRRSIIIF: S65T GFP with N-terminal phosphorylation site MRRRRSIIIF, N-terminus extended by two (not fully specified (C-terminus); printed as −2MRRRRSIIIF)”, the “% Change in fluorescence upon phosphorylation” value in data set [3] is 15%. As to “Erk-1: GFP mutant K8 with Erk kinase motif Met Val Glu Pro Leu Thr Pro Ser Phe (MVEPLTPSF; not fully specified; printed as Met Val Glu Pro Leu Thr Pro Ser Phe)”, the “^32P-Incorporation (CPM)” value in data set [4] was found to be 1579 ± 282 CPM. For the compound “1MRRESLLF: S65T GFP with N-terminal phosphorylation site MRRESLLF (not fully specified (C-terminus); printed as 1MRRESLLF)”, the “Relative rates of phosphorylation” value in data set [2] was determined as 3.0. In addition, in data set [3], the “% Change in fluorescence” value came out at 6.0%. The like results for “1MRKGSLLF: S65T GFP with N-terminal phosphorylation site MRKGSLLF (not fully specified (C-terminus); printed as 1MRKGSLLF)” were, in that order, 1.6 and 8.0%. Consider “1MRKGSCLF: S65T GFP with N-terminal phosphorylation site MRKGSCLF (not fully specified (C-terminus); printed as 1MRKGSCLF)”, for which, in data set [2], the “Relative rates of phosphorylation” value is given as 5.1. For the same compound, the “% Change in fluorescence” value in data set [3] came out at 5.7%. The corresponding values for “1MSKRRDSL: GFP with N-terminal phosphorylation site MSKRRDSL; 7% of wild type fluorescence (not fully specified (C-terminus); printed as 1MSKRRDSL)” are 5.5 and 5.1%. Turning to “Erk-5: GFP mutant K8 with Erk kinase motif Met Thr Gly Pro Leu Ser Pro Gly Tyr (MTGPLSPGY; not fully specified; printed as Met Thr Gly Pro Leu Ser Pro Gly Tyr)”, in data set [4], the “^32P-Incorporation (CPM)” value worked out at 6455 ± 558 CPM. Turning to “Erk-6: GFP mutant K8 with Erk kinase motif Met Thr Gly Pro Leu Ser Pro Gly Leu (MTGPLSPGL; not fully specified; printed as Met Thr Gly Pro Leu Ser Pro Gly Leu)”, the “^32P-Incorporation (CPM)” value in data set [4] was found to be 22498 ± 381 CPM. In the data set with Erk-1 kinase, the “Fold Increase in Fluorescence after Phosphorylation” value amounted to 1.20 fold.
